From the supplement of paper PMC7877785
± gives the uncertainty stated by the source.

Assay: self-splicing fitness, log relative to wild type (ln ratio); higher = more splicing; Tetrahymena group I intron in knt gene, E. coli kanamycin selection, DiMSum; sequences stand for … in CUCUCU…GGAGGGAAAAGUUAUCAGGCAUGCACCUGGUAGCUAGUCUUUAAACCAAUAGAUUGCAUCGGUUUAAAAGGCAAGACCGUCAAAUUGCGGGAAAGGGGUCAACAGCCGUUCAGUACCAAGUCUCAGGGGAAACUUUGAGAUGGCCUUGCAAAGGGUAUGGUAAUAAGCUGACGGACAUGGUCCUAACCACGCAGCCAAGUCCUAAGUCAACAGAUCUUCUGUUGAUAUGGAUGCAGUUCACAGACUAAAUGUCGGUCGGGGAAGAUGUAUUCUUCUCAUAAGAUAUAGUCGGACCUCUCCUUAAUGGGAGCUAGCGGAUGAAGUGAUGCAACACUGGAGCCGCUGGGAACUAAUUUGUAUGCGAAAGUAUAUUGAUUAGUUUUGGAGUACUCGUGGUCG
Outline: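 DiMSum derived fitness as the error-weighted combination of fold changes across replicates, kanamycin versus no kanamycin, normalised to wild type. E. coli BL21(DE3) held the library, which randomised all eight P1ex-region intron nucleotides within the knt kanamycin-resistance gene on pET-22b(+). Six replicate transformations grew overnight at 37°C or 30°C on LB agar with or without 25 μg/mL kanamycin, also containing 100 μg/mL carbenicillin, 50 μM IPTG and 0.2% rhamnose, and pooled colonies were amplicon-sequenced on an Illumina HiSeq 2500.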

Sequence	self-splicing fitness (ln) (30 °C)	self-splicing fitness (ln) (37 °C)
GGGCAGCAAUAUUACGGCGA	-0.562 ± 0.11	-0.245 ± 0.099
GGGCAGCAAUAUUACGGGGG	-3.44 ± 0.41	
GGGCAGCAAUAUUACGGUGU	-2.02 ± 0.1	-1.21 ± 0.099
GGGCAGCAAUAUUACGUCGU	-0.45 ± 0.11	-0.185 ± 0.1
GGGCAGCAAUAUUACGUUAC	-1.84 ± 0.16	-0.903 ± 0.23
GGGGAGCAAUAUUACGACUG	-0.399 ± 0.45	
GGGGAGCAAUAUUACGACUU	-1.2 ± 0.16	0.242 ± 0.22
GGGGAGCAAUAUUACGCUUU	-2.18 ± 0.27	
GGGGAGCAAUAUUACGGAAA		-0.21 ± 0.41
GGGGAGCAAUAUUACGGAAU		-1.68 ± 0.33
GGGGAGCAAUAUUACGGAGU	-1.01 ± 0.41	
GGGGAGCAAUAUUACGGUCG	-2.08 ± 0.28	-0.686 ± 0.35
GGGGAGCAAUAUUACGUAAA	-3.12 ± 0.36	-1.18 ± 0.3
GGGGAGCAAUAUUACGUGUC	-3.68 ± 0.33	-2.19 ± 0.18
GGGUAGCAAUAUUACGAAUC	0.0354 ± 0.3	-0.646 ± 0.36
GGGUAGCAAUAUUACGACAA	-0.573 ± 0.24	-0.263 ± 0.21
GGGUAGCAAUAUUACGAGAC	-3.48 ± 0.32	-1.9 ± 0.42
GGGUAGCAAUAUUACGAGAG	-3.56 ± 0.28	-2.26 ± 0.2
GGGUAGCAAUAUUACGAGUU	-0.948 ± 0.092	-1.38 ± 0.2
GGGUAGCAAUAUUACGAUCG	-0.211 ± 0.16	-0.869 ± 0.22
GGGUAGCAAUAUUACGCAAC		-2.43 ± 0.44
GGGUAGCAAUAUUACGCAAU	-1.79 ± 0.31	-1.47 ± 0.39
GGGUAGCAAUAUUACGCCCG	-1.88 ± 0.25	-1.32 ± 0.17
GGGUAGCAAUAUUACGGACA	-0.93 ± 0.093	-0.223 ± 0.097
GGGUAGCAAUAUUACGGCAU	-0.0241 ± 0.076	-0.23 ± 0.096

Sequence	self-splicing fitness (ln) (30 °C)	self-splicing fitness (ln) (37 °C)
GGGUAGCAAUAUUACGGGCU	-0.35 ± 0.081	0.282 ± 0.13
GGGUAGCAAUAUUACGGGUG	-4.22 ± 0.36	-2.68 ± 0.22
GGGUAGCAAUAUUACGGUAU	-2.11 ± 0.13	-0.598 ± 0.14
GGGUAGCAAUAUUACGGUGG	-2.55 ± 0.27	-1.61 ± 0.33
GGGUAGCAAUAUUACGUGCA	-0.359 ± 0.12	-0.483 ± 0.14
GGGUAGCAAUAUUACGUUCC		-2.09 ± 0.46
GGGUAGCAAUAUUACGUUGC	-3.63 ± 0.33	-0.334 ± 0.22
GGUAAGCAAUAUUACGAAAA	-2.86 ± 0.43	-0.969 ± 0.34
GGUAAGCAAUAUUACGAAGU	-1.93 ± 0.31	-1.78 ± 0.25
GGUAAGCAAUAUUACGACGC	0.697 ± 0.17	0.22 ± 0.21
GGUAAGCAAUAUUACGAUAU	-0.847 ± 0.15	0.242 ± 0.2
GGUAAGCAAUAUUACGAUGC	-0.616 ± 0.13	-0.401 ± 0.16
GGUAAGCAAUAUUACGAUGU	-1.2 ± 0.061	-0.805 ± 0.074
GGUAAGCAAUAUUACGCCAG	-4.42 ± 0.27	-2.13 ± 0.29
GGUAAGCAAUAUUACGCCUA	-0.917 ± 0.088	-0.737 ± 0.091
GGUAAGCAAUAUUACGCCUU	-1.49 ± 0.15	-0.81 ± 0.15
GGUAAGCAAUAUUACGCGCA	-0.159 ± 0.074	-0.401 ± 0.085
GGUAAGCAAUAUUACGCGGG	-3.28 ± 0.17	-2.02 ± 0.2
GGUAAGCAAUAUUACGCUAC	-2.3 ± 0.4	-2.23 ± 0.37
GGUAAGCAAUAUUACGCUCG	-0.274 ± 0.13	-0.892 ± 0.23
GGUAAGCAAUAUUACGGACU	-1.43 ± 0.17	-0.246 ± 0.2
GGUAAGCAAUAUUACGGAGG		-3.58 ± 0.42
GGUAAGCAAUAUUACGGAGU	-3.39 ± 0.22	-1.73 ± 0.18
GGUAAGCAAUAUUACGGCUA	0.109 ± 0.085	-0.0128 ± 0.11
GGUAAGCAAUAUUACGGGGU		-2.57 ± 0.25

Sequence	self-splicing fitness (ln) (30 °C)	self-splicing fitness (ln) (37 °C)
GGUAAGCAAUAUUACGGGUG	-3.24 ± 0.12	-1.85 ± 0.088
GGUAAGCAAUAUUACGUACC	-3.79 ± 0.44	
GGUAAGCAAUAUUACGUCAC	-2.85 ± 0.24	-2.04 ± 0.23
GGUAAGCAAUAUUACGUCAG	-3.79 ± 0.34	-2.52 ± 0.39
GGUAAGCAAUAUUACGUGGC	-2.67 ± 0.15	-1.29 ± 0.16
GGUAAGCAAUAUUACGUGUG	-2.8 ± 0.16	-2.61 ± 0.16
GGUCAGCAAUAUUACGAAUC	-0.132 ± 0.14	0.365 ± 0.13
GGUCAGCAAUAUUACGACCC	-2.52 ± 0.27	-2.43 ± 0.41
GGUCAGCAAUAUUACGACUA	0.124 ± 0.092	0.866 ± 0.13
GGUCAGCAAUAUUACGAGCU	-0.647 ± 0.097	-0.497 ± 0.12
GGUCAGCAAUAUUACGAUAU	0.154 ± 0.071	0.391 ± 0.082
GGUCAGCAAUAUUACGCAAU	-0.0569 ± 0.099	0.16 ± 0.12
GGUCAGCAAUAUUACGCCUG	-2.9 ± 0.2	-0.721 ± 0.12
GGUCAGCAAUAUUACGCGCG	-0.298 ± 0.092	-0.546 ± 0.11
GGUCAGCAAUAUUACGCUGA	-3.21 ± 0.44	-1.95 ± 0.32
GGUCAGCAAUAUUACGGAAU	-0.593 ± 0.054	-0.0986 ± 0.069
GGUCAGCAAUAUUACGGUAA	-0.874 ± 0.071	-0.111 ± 0.069
GGUCAGCAAUAUUACGUACA	-0.423 ± 0.087	0.547 ± 0.14
GGUCAGCAAUAUUACGUCGU	0.302 ± 0.08	0.488 ± 0.082
GGUCAGCAAUAUUACGUGAA	-0.356 ± 0.086	0.381 ± 0.096
GGUCAGCAAUAUUACGUUGU	-1.51 ± 0.057	-0.47 ± 0.068
GGUGAGCAAUAUUACGAAUA	-2.09 ± 0.33	
GGUGAGCAAUAUUACGAGGG	-3.16 ± 0.26	-2.43 ± 0.24
GGUGAGCAAUAUUACGCAGC		-1.93 ± 0.34
GGUGAGCAAUAUUACGCGUG	-1.22 ± 0.16	-1.52 ± 0.21

Sequence	self-splicing fitness (ln) (30 °C)	self-splicing fitness (ln) (37 °C)
GGUGAGCAAUAUUACGGAAC	-1.27 ± 0.21	-0.837 ± 0.24
GGUGAGCAAUAUUACGGCUC	-1.94 ± 0.24	-0.104 ± 0.3
GGUGAGCAAUAUUACGGGAG	-1.79 ± 0.28	-2.68 ± 0.48
GGUGAGCAAUAUUACGGGGG	-3.41 ± 0.43	
GGUGAGCAAUAUUACGGGGU	-3.31 ± 0.17	-2.94 ± 0.26
GGUGAGCAAUAUUACGGGUG	-3.18 ± 0.26	-2.7 ± 0.27
GGUGAGCAAUAUUACGGGUU		-2.59 ± 0.36
GGUGAGCAAUAUUACGGUCC	-1.66 ± 0.13	-0.523 ± 0.15
GGUGAGCAAUAUUACGUACU	-1.89 ± 0.14	-1.75 ± 0.17
GGUGAGCAAUAUUACGUAGA	-3.01 ± 0.33	-2.19 ± 0.29
GGUGAGCAAUAUUACGUAGG	-3.15 ± 0.27	-2.07 ± 0.32
GGUGAGCAAUAUUACGUAUC	-1.77 ± 0.1	-0.807 ± 0.12
GGUGAGCAAUAUUACGUGCC	-3.67 ± 0.33	-2.67 ± 0.38
GGUGAGCAAUAUUACGUGCU	-1.66 ± 0.18	-1.74 ± 0.37
GGUUAGCAAUAUUACGAAAC		-1.68 ± 0.41
GGUUAGCAAUAUUACGAAGU	-0.268 ± 0.2	-0.745 ± 0.18
GGUUAGCAAUAUUACGACAC	0.342 ± 0.2	-0.137 ± 0.24
GGUUAGCAAUAUUACGACCA	-1.69 ± 0.32	-0.631 ± 0.3
GGUUAGCAAUAUUACGAUAA	-0.985 ± 0.12	-0.35 ± 0.14
GGUUAGCAAUAUUACGAUCA	-0.0432 ± 0.15	-0.342 ± 0.13
GGUUAGCAAUAUUACGAUUC	-0.602 ± 0.11	-0.718 ± 0.17
GGUUAGCAAUAUUACGCACU	-2.48 ± 0.28	-2.32 ± 0.25
GGUUAGCAAUAUUACGCAUC	-0.527 ± 0.33	-0.989 ± 0.38
GGUUAGCAAUAUUACGCGGG	-3.71 ± 0.22	-1.23 ± 0.12
GGUUAGCAAUAUUACGGCAC	-0.473 ± 0.15	-0.251 ± 0.18
